Test results published in patent publication CN113185608A.
Changes are numbered by the printed parent chain.

B1: 1H10+3λ5 (antibody, V domains shown)
VH: EVQLVQSGGGLVQPGGSLRLSCAASVEAFSTYWMNWVRQAPGKGLEWVANINRDGSQKYYVDSVEGRFTISRDNAKSSLYLQMNSLRADDTAVYYCMSGYDSGHWGQGSLVTVSS
VL: SQAVVTQEPSLTVSPGGTVTLTCGSSTGAVTSGLYAYWFQQKPGQVPRTLSTGAVIYNISNKQSWTPARFSGSLLGGKAALTLSGAQPEDEADYYCLLSYSRTRVFGGGTKLTVLG
B2: 1H16+3λ7 (antibody, V domains shown)
VH: B1 VH with Q6E, V26G, E27F, A28T
VL: SQAVVTQEPSLTVSPGGTVTLTCGSSTGAVTSGLYAYWTVTFQQKPGQVPRTLIYNISNKQSWTPARFSGSLLGGKAALTLSGAQPEDEADYYCLLSYSRTRVFGGGTKLTVLG
B3: 1H18+3λ10 (antibody, V domains shown)
VH: EVQLVQSGGGLVQPGGSLRLSCAASGFTFSTYWMNWVRLSQTPGKGLEWVANINRDGSQKYYVDSVEGRFTISRLSDNAKSSLYLQMNSLRADDTAVYYCMSGYDSGHWGQGSTVTVSS
VL: SQTVVTQEPSLTVSPGGTVTLTCGSSTGAVTSGLYAQQKPGQVPRTLIYNISNKQSWTPARFSGSLLGGKAALTLSGAQPEDEADYYCLLSYSRTRVFGGGTKLTVLG
B4: 1H3+3λ1 (antibody, V domains shown)
VH: VHSQVQLVESGGGVVQPGRSLRLSCAASGFTFSSYAMHWVRQAPGKGLEWVAVISYDGNKYYADSVKGRFTISRDNSKNTLYLQMNSLRDEDTAVYYCARAPDCSGGSCSTEYFQHWGQGTLVTVSS
VL: SWAQSVLTQEPSLTVSPGGTVTLTCGSSTGAVTSGLYAYWFQQKPGQVPRTLIYNISNKQSWTPARFSGSLLGGKAALTLSGAQPEDEADYYCLLSYSRTRVFGTKLTVLGQPKAAPSVTLFP
B5: 1H17+3λ8 (antibody, V domains shown)
VH: EVQLLESGGGLVQPGGSLRLSCAASGFTFSTYWMNWVRQAPGKGLEWVANRDGSQKYYVDSVEGRFTISRDNAKSSLYLQMNSLRADDTAVYYCMSGYDSGHWGQGSTVTVSS
VL: ANFMLTQEPSLTVSPGGTVTLTCGSSTGAVTSGLYAYWFQQKPGQVPRTLIYNISNKQSWTPARFSGSLLGGKAALTLSGPEDEADYYCLLSYSRTRVFGGGTKLTVLG

Molecular target: 狂犬病毒糖蛋白(Glycoprotein，GP) (Rabies virus (RABV))
Experiment: ELISA of HEK293T transfection supernatant

Row | Binder | OD (ELISA) [OD]
1 | B1 | > 1.1
2 | B2 | > 1.1
3 | B3 | > 1.1
4 | B4 | > 1.1
5 | B5 | > 1.1
